Measurements taken from paper PMC2882252 (Journal of the American Chemical Society, 2009).

Legend:
N[C@H](CCC(=O)O)C(=O)O = test: purified protein; assay type: biochemical, Bacillus subtilis; conditions: active site
[1] = target: glutamate racemase (RacE) (Bacillus subtilis, UniProt P94556); assay type: biochemical
purified protein = substrate: N[C@@H](CCC(=O)O)C(=O)O; test: purified protein; conditions: active site, between Cys74 and Cys185

glutamate racemase (RacE) T76A (Bacillus subtilis subsp. subtilis str. 168; T76A)
Km (N[C@H](CCC(=O)O)C(=O)O): 8.6 ± 1.4 mM

O=C(O)c1cccc(C(=O)O)n1 [DPA, 2,6-pyridinedicarboxylic acid]
Ki [1]: 1.97 ± 1.16 mM

B1: glutamate racemase (RacE) (Bacillus subtilis subsp. subtilis str. 168) (protein)
chain: MLEQPIGVIDSGVGGLTVAKEIMRQLPKENIIYVGDTKRCPYGPRPEEEVLQYTWELTNYLLENHHIKMLVIACNTATAIALDDIQRSVGIPVVGVIQPGARAAIKVTDNQHIGVIGTENTIKSNAYEEALLALNPDLKVENLACPLLVPFVESGKFLDKTADEIVKTSLYPLKDTSIDSLILGCTHYPILKEAIQRYMGEHVNIISSGDETAREVSTILSYKGLLNQSPIAPDHQFLTTGARDQFAKIADDWFGHEVGHVECISLQEPIKR
Km (purified protein): 14 ± 6 mM
